Results on two molecules are retold here after patent US10836815B2, “Generation and comparative kinetic analysis of new glycosynthase mutants from Streptococcus pyogenes endoglycosidases for antibody glycoengineering” (UNIVERSITY OF MARYLAND, COLLEGE PARK, priority 2017, dated 2020).

Changes are numbered by the printed parent chain. In names and notes the source's numbering stands. Entries after “also recorded” stand apart in the source; their conditions may differ.

What all share (type): biochemical
Data set [1] has as its system deglycosylated rituximab. The experiment in a line: Transglycosylation activity assay of Endo-S and D233 mutants, LC-ESI-MS. The following applies: for Transglycosylation Activity: deglycosylated rituximab 10.0 mg/mL, SCT-Oxa 1.38 mM (20 eq), enzyme 0.01 mg/mL, PBS pH 7.4, 30° C., duplicate; for Transglycosylation/Hydrolysis Ratio T/H: ratio of transglycosylation to hydrolysis activity, Table 1. The method, then: (§1) The hydrolytic activity of the mutants generated was evaluated using rituximab as the substrate, and the transglycosylation activity was evaluated using the sugar oxazoline and the deglycosylated rituximab as the donor and acceptor substrates, respectively (Scheme 1).
(§2) The LC-MS characterization of different antibody glycoforms was conducted on an Exactive Plus Orbitrap instrument (Thermo Scientific). The intact antibody sample was analyzed with a Waters XBridge™ BEH300 C4 column (3.5 μm, 2.1×50 mm). The program includes a 9 min linear gradient of 5-90% MeCN containing 0.1% formic acid at a flow rate of 0.4 mL/min. The original mass data were processed through deconvolution and integration through MagTran Software (Amgen).
(§3) Peptide-N-Glycosidase F (PNGase F) treated rituximab was used as the internal standard due to its similarities to the deglycosylated and transferred product in terms of their molecular structures and ionization efficiencies. After PNGase F treatment, a mutation will be introduced into the amino acid sequence of rituximab so the product antibody will not interfere with the reaction via re-glycosylation^35. A standard product S2G2F-rituximab was synthesized following the previously reported procedure^29. […] Serial dilutions containing a gradient of S2G2F-rituximab (0, 0.25, 0.5, 0.75, 1.0, 1.25 and 1.5 μM) were mixed with a stock solution containing 0.67 μM internal standard. These mixed sample solutions were quantified by selected ion monitoring (SIM) to calculate the single-point normalization factor^31. The factor could then be used to calculate the relative amount of the final product N-glycoform for each reaction in the following experiments.
(§4) The hydrolytic activity of each Endo-S mutants and the wild-type (0.01 mg/mL) was assayed in PBS (pH 7.4, 10 μl) at 30° C. with synthetic biantennary sialo-complex-type rituximab (1.0 mg/mL, 6.9 μM) as the starting material. Each reaction was terminated at 5 min and an aliquot was taken from the reaction mixture and dissolved in 0.1% formic acid. The relative quantity of the hydrolysis product was calculated through deconvolution and integration of the selected MS peaks. The experimental details of product quantification using LC-MS are illustrated below. The transglycosylation activity of Endo-S was measured in a similar fashion: deglycosylated Rituximab (10.0 mg/mL, 69 μM) was incubated with SCT-Oxa (1.38 mM, 20 eq) under catalysis of Endo-S enzymes (0.01 mg/mL) under the same condition as hydrolysis. The transglycosylation product SCT-Rituximab was analyzed as mentioned above. Both functional assays were repeated twice for each mutant and the wild-type, and the average activity was recorded

Data set [2] is described as follows: Kinetic measurements (KM, Vmax) of Endo-S/Endo-S2 mutants for SCT-Oxa. The following applies: for Km / kcat: Endo-S mutants, donor substrate SCT-Oxa, PBS pH 7.4, 30° C. The method, then:
Using a sialylated glycan oxazoline (SCT-Oxa) as the donor and the deglycosylated rituximab as the acceptor substrate, we measured the kinetic parameters of the enzyme catalyzed glycosylation were measured. A mass spectrometry-based approach with an internal standard was used to estimate the product formation.^31-33.
as §3
Measurements of KM and Vmax for SCT-oxa. Serial dilutions with a total volume of 10 μL were prepared with a gradient of SCT-oxa concentrations and a constant deglycosylated antibody concentration mixed in PBS, pH 7.4. Each reaction was initiated by adding 1μμL, of Endo-S/S2 mutants with a concentration of 0.1 mg/M1 and the reaction was conducted at 30° C. The concentrations of SCT-oxa were within a range from 6.25 μM to 400 μM. For each reaction, three aliquots were taken at t=1, 2 and 3 min and immediately quenched in 100 μL 0.1% formic acid. The quenched reaction samples were then characterized by ESI-MS, and the concentration of product in each mixture was calculated using the normalization factor, as shown above. […] The KM and Vmax were measured by fitting the initial velocity against the SCT-oxa concentration using the GraphPad Prism7 program. The experiments were conducts in triplicate to determine the error in these measurements.

For data set [3], the system named is deglycosylated rituximab. The experiment in a line: Time-course comparison of transglycosylation with SCT-Oxazoline monitored by LC-ESI-MS (FIG. 1). The following applies: D233M, D233Q, D233A compared with glycan oxazoline under same conditions. An excerpt: The data sets presented here are representative of three independent experiments.
The parallel reactions were monitored by LC-ESI-MS (FIG. 1).

For data set [4], the system named is deglycosylated rituximab. The experiment in a line: Kinetic measurements (KM, Vmax) of Endo-S/Endo-S2 mutants for deglycosylated rituximab.
Text: as §3
Measurements of KM and Vmax for SCT-oxa. Serial dilutions with a total volume of 10 μL were prepared with a gradient of SCT-oxa concentrations and a constant deglycosylated antibody concentration mixed in PBS, pH 7.4. Each reaction was initiated by adding 1μμL, of Endo-S/S2 mutants with a concentration of 0.1 mg/M1 and the reaction was conducted at 30° C. The concentrations of SCT-oxa were within a range from 6.25 μM to 400 μM. For each reaction, three aliquots were taken at t=1, 2 and 3 min and immediately quenched in 100 μL 0.1% formic acid. The quenched reaction samples were then characterized by ESI-MS, and the concentration of product in each mixture was calculated using the normalization factor, as shown above. A linear progression curve was confirmed for each reaction by sampling at multiple early time points and plotting them in the same graph, which emphasized that the V0 measured indeed represents the initial rate of each reaction. The KM and Vmax were measured by fitting the initial velocity against the SCT-oxa concentration using the GraphPad Prism7 program. The experiments were conducts in triplicate to determine the error in these measurements.
The KM and Vmax values of both Endo-S and Endo-S2 mutants for the deglycosylated antibody substrate were measured in a similar fashion as to those for SCT-Oxa. In the serial reactions, the concentrations of antibody range from 0.313 μM to 20 μM, whereas the SCT-Oxa concentration was fixed at 400 μM. A similar control reaction was also performed for each concentration to monitor the non-enzymatic side reactions.

The subject of a further data set is rituximab. The experiment in a line: Hydrolysis activity assay of Endo-S and D233 mutants, LC-ESI-MS. The following applies: for Specific Hydrolysis Activity: rituximab 1.0 mg/mL as substrate, enzyme 0.01 mg/mL, PBS pH 7.4, 30° C., 5 min, duplicate. The method, then: as §1, §2, §3, §4
The mark [5] stands for this setting: Endo-S mutants, acceptor substrate deglycosylated rituximab, SCT-Oxa fixed at 400 μM.

B1: Endo-S D233M (protein)
chain: MDKHLLVKRTLGCVCAATLMGAALATHHDSLNTVKAEEKTVQVQKGLPSIDSLHYLSENSKKEFKEELSKAGQESQKVKEILAKAQQADKQAQELAKMKIPEKIPMKPLHGPLYGGYFRTWHDKTSDPTEKDKVNSMGELPKEVDLAFIFHDWTKDYSLFWKELATKHVPKLNKQGTRVIRTIPWRFLAGGDNSGIAEDTSKYPNTPEGNKALAKAIVDEYVYKYNLDGLDVMVEHDSIPKVDKKEDTAGVERSIQVFEEIGKLIGPKGVDKSRLFIMDSTYMADKNPLIERGAPYINLLLVQVYGSQGEKGGWEPVSNRPEKTMEERWQGYSKYIRPEQYMIGFSFYEENAQEGNLWYDINSRKDEDKANGINTDITGTRAERYARWQPKTGGVKGGIFSYAIDRDGVAHQPKKYAKQKEFKDATDNIFHSDYSVSKALKTVMLKDKSYDLIDEKDFPDKALREAVMAQVGTRKGDLERFNGTLRLDNPAIQSLEGLNKFKKLAQLDLIGLSRITKLDRSVLPANMKPGKDTLETVLETYKKDNKEEPATIPPVSLKVSGLTGLKELDLSGFDRETLAGLDAATLTSLEKVDISGNKLDLAPGTENRQIFDTMLSTISNHVGSNEQTVKFDKQKPTGHYPDTYGKTSLRLPVANEKVDLQSQLLFGTVTNQGTLINSEADYKAYQNHKIAGRSFVDSNYHYNNFKVSYENYTVKVTDSTLGTTTDKTLATDKEETYKVDFFSPADKTKAVHTAKVIVGDEKTMMVNLAEGATVIGGSADPVNARKVFDGQLGSETDNISLGWDSKQSIIFKLKEDGLIKHWRFFNDSARNPETTNKPIQEASLQIFNIKDYNLDNLLENPNKFDDEKYWITVDTYSAQGERATAFSNTLNNITSKYWRVVFDTKGDRYSSPVVPELQILGYPLPNADTIMKTVTTAKELSQQKDKFSQKMLDELKIKEMALETSLNSKIFDVTAINANAGVLKDCIEKRQLLKK
In general, Km refers to the concentration of substrate that gives half-maximal velocity. As usually defined, the kcat is the number of substrate molecules converted per active site and unit of time at saturation. Regarding B1, in the data set with deglycosylated rituximab [1] (based on Table 1), the “enhanced synthetic efficiency (T/H) over D233A” value was around 8 fold and the “enhanced synthetic efficiency (T/H) over D233Q” value is given as “approximately 3 fold”. In addition, the “transglycosylation activity (in words)” value in the data set on deglycosylated rituximab [1] (biantennary complex-type glycan oxazoline to deglycosylated rituximab) is reported as “most significant transglycosylation activities; also recorded: relatively high transglycosylation activity”. In the data set on deglycosylated rituximab [1], the “Transglycosylation Activity” value is reported as 2.71 100*(μmol/min/mg) and the “Transglycosylation/Hydrolysis Ratio T/H” value came to 135.50. In the data set with deglycosylated rituximab [1] (ratio of transglycosylation/hydrolysis), the “overall efficiency for glycoform synthesis (T/H, in words)” value is recorded as “highest overall synthetic efficiency”. In data set [2], the Km worked out at 195 ± 7.21 µM and the kcat turned out to be 0.0832 ± 0.0152 s⁻¹. Besides, in data set [2] (SCT-Oxa), the “increase in kcat/KM over Endo-S D233A” value amounted to 3 fold, the “increase in turnover (kcat) over D233A” value is “approximately 4 fold” and the “reduced affinity (KM) versus D233A” value is “less than 2 fold”. Moreover, the “transglycosylation efficiency in time-course (in words)” value with deglycosylated rituximab [3] is “more efficient than the previously identified mutants, D233A and D233Q”. In addition, the “substrate affinity for the deglycosylated antibody (in words)” value in the data set on deglycosylated rituximab [4] (Asp-to-Met versus Asp-to-Ala mutant) is listed as “much higher substrate affinity than the D233A mutant”. Moreover, in the data set on deglycosylated rituximab [4] (setting [5]), the Km is 30.2 ± 7.21 µM and the kcat came to 0.0922 ± 0.0318 s⁻¹. The Km in the data set on deglycosylated rituximab [4] (Endo-S mutants, acceptor substrate deglycosylated rituximab, SCT-Oxa fixed at 400 μM, listed as D233M) turned out to be 30 µM. In the data set with rituximab, the “Specific Hydrolysis Activity” value is listed as 0.02 100*(μmol/min/mg). Also, the “hydrolysis activity (in words)” value in the data set with rituximab (rituximab as substrate, compared with wild type Endo-S and other mutants) is given as “remarkably low residual hydrolysis activity”.

B2: Endo-S D233A (protein)
chain: B1 chain with M233A
For the molecule B2, in the data set with deglycosylated rituximab [1], the “Transglycosylation Activity” value was 1.06 100*(μmol/min/mg) and the “Transglycosylation/Hydrolysis Ratio T/H” value amounted to 17.67. Moreover, in data set [2], the Km stood at 87.9 ± 10.1 µM and the kcat stood at 0.0223 ± 0.00317 s⁻¹. Moreover, the Km in the data set with deglycosylated rituximab [4] (setting [5]) was above 200 µM. Moreover, in the data set with rituximab, the “Specific Hydrolysis Activity” value is 0.06 100*(μmol/min/mg).
